Test: yeast display, Sf9 membrane polyspecificity reagent, FACS + sequencing; frameworks hold sequencing errors
How it was run: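 Polyreactivity labels are assigned by the sorting gate from which each nanobody was recovered. The gates were low and high (top ~1%), set on anti-HA fluorescence for expression and streptavidin fluorescence for reagent binding. Before sorting, galactose-induced (36–48 hours) yeast display cells were stained for 1 hour at 4 °C with 10% biotinylated, detergent-solubilized Sf9 membrane reagent.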

Sequence | polyreactivity (PSR sort gate)
QVQLVESGGGLVQAGGSLRLSCAASGSTFDGNDMGWYRQAPGKERELVAAITIGGGSTYYADSVKGRFTISRDNAKNTVYLQMNSLKPEDTAVYYCAAVYFYSWEGDGDYWGQGTQVTVSS | low polyreactivity
QVQLVESGGGLVQAGGSLRLSCAASGFIFDVYAMGWYRQAPGKERELVAAISVSSTNYADSVKGRFTISRDNAKNTVYLQMNSLKPEDTAVYYCAADTYTYFLASYLYGQYDYWGQGTQVTVSS | low polyreactivity
QVQLVESGGGLVQAGGSLRLSCAASGSTFVGYAMGWYRQAPGKERELVAAISGSGTSTYYADSVKGRFTISRDNAKNTVYLQMNSLKPEDTAVYYCNADPIFVYSSYNYWGQGTQVTVSS | low polyreactivity
QVQIVESGGGLVQAGVSLRLSCAASGSIYYEYTMGWYRQAPGKERELVAVITSCGTTNYADSVKGRFTISRDNAKNTVFLQMNSLKPEDTAVYYCAAKRRTGGNGYWGQGTQVTVSS | high polyreactivity
QVQLVESGRGLLQAGGSLRLSCASSGCIFTSYAMGWYRPAPGKVRELVAGITRGGRTYYADSVKGRFTISRDKAKNTVYLQSNSLKPEDTAVYYCAALSSRHFVFTVDYWGQATQVTVSS | high polyreactivity
QVQLQESGGGLVQAGGSLRLSCAASCTISQEDWMGSYRQAPGKEREFVAAIGLGSNTNYADSLKGRFTISRDNAKNTVYLQMNSLKPEDTAVYYCAVSVWQYSDHVYRGQGTQVTVSS | low polyreactivity
QVQLVESGGGLVQAGGSLRLSCAASGRICGSYAMGWYRQAPGKERELVAAISWRGTSTYYADSVKGRFTISRDNAKNTVYLQMNSLKPEDTAVYYCAAAVDAFTNKQYYYWGQGTLVTVSS | low polyreactivity
QVQLVESGGGIVQAGGSLRLSCAASGSTFDYYAMGWYRQAPGKEMELVAGISASGGSTYYADSVKGRFTISRDNAKNTVYLQMNSLKPEDTAVYYWASYYKPPGYDYWGQGTQVTVSS | low polyreactivity
QVQLVDSGGGVVQAGGSLLLSCPASGLIIKVYAMGWYRQAPGKERELVAAITYSGGSTDYADSVKGRFTISRDNAKNTVFLQMISLKPEDTAVYYCNVEKVGHVNSYGYDYWGQGTQVTVSS | low polyreactivity
QVQLVESGGGLVQAGGSLRLSCADSGSIFGYYAMGRYRQAPGKERELVAAISDGGTITYYADSVKGRFTISRDNAKNTVYLQMNSLKPEDTAVYYCAARSPPRYYEHSYYYWGQGTQETVSS | high polyreactivity
QVQLVESGGGLVQAGGSLRLSCAASGRISIWYAMGWYRQAPGKERELVARISTSSGRTYYADSVKGRFTISRDNAKNTVYLQMNSLKPEDTAVYYCNAAGYRIYFSTRYDYWGQGTQVTVSS | high polyreactivity
QVQLVESGGGLDQAGGSLRLSCAASGSTFRYSVMGWSRQAPGKERELVAGISYRGGTTYYADSVKGRFTISRDNAKNTVYLQMNSLKPEDTAVYYCAADSTPYVLSGNYDYWGQGTQVTVSS | low polyreactivity
QVQLVESGGGLVQAGGSLRLSCAASGSIFRGYAMGCYRQAPGKERELVAAITSGGSTNYADSVKGRFTISRDNAKNTVYLQMNSLKPEDTAVYYCAKDLALVAPLSDYWGQGTQVTVSS | low polyreactivity
QVQLVESGGGLVQAGGSLRLSCAASGIIFSGNAMGWYRQAPGKERELVAAITRGGRTYYADSVKGRFTISRDNAKNTVYLQMNSLKPEDTAVYYCAAGYPYSYRDYYYWGQGTQVTVSS | high polyreactivity
QVQLVESGGGLVQAGGSLRLSCAASGSTFQLYVMGWYRQAPGKERELVAAIDDGGGSTYYADSVKGRFTISRDNAKNTVYLQMNSLKPEDTAVYYCARRYGYFGYEYDYWGQGTQVTVSS | high polyreactivity
QVQRVESGGGLVQAGGSLRISCAASGLTINNYARGWYRQAPGKERELVAAISFSGGDTYYADSVKGRFTISRDNAKNTVYLQMNSLKPEDTGVYYFAAESYSVLQMGYWGQGTQVTVSS | high polyreactivity
QVQLVESGGGLDHAGGRLRLSCAASGSIFYENVMGWYRQAPGKERELVAGISRSGGRTYYADSVKGSFTISRDYAKNTVYLQMNSLQPVDTAVYYCAALTPRNRYRKFDYWGQGTQVTVSS | high polyreactivity
QVQLVESGGGLVQAGGSLRLSCAASGSTFGYYAMGWYRQAPGQERELVAAITSGGSTKYADSVKGRFTISRDNAKNTVYLQLISLKPEDNAVYYCATSRYFGYGYWGQGTQVTVSS | low polyreactivity
QDQLVESGGGLVQAGGSLRLSCAASGSIFRVYVMGWYRQAPGKERELVAAITSSDGSTYYADSVKGRFTISRDNAKNTVYLQMNSLKPEDTAVYYCNAEFYSPRVVVPRYWYPGDYWGQGTQVTVSS | low polyreactivity
QVQLVESGGGLVQAGGSLRLSCAASGRTLYWYAMGWYRQAPGKERQLVAVISGSGASTYYADSVKGRFTISRDNAKNTVYLQMNSLKPEDTAVYYCNARDYRRYGRYHWQDYDYWGQGTQVTVSS | high polyreactivity

Sequence | polyreactivity (PSR sort gate)
QVQLVESGGGLVQAGGSLRLSCAASGITFYDYAMGWYRQAPGKERELVAAISGGGITYYADSVKGRFTISRDNAKNTVYLQMNSLKPEDTAVYYCAAERYSPSVGYDYWGQGTQVTVSS | low polyreactivity
QVQLVESGGGLVQAGGSLRLSCAASGSIFRGNAMGWYRQAPGKERELDATISNGGSTNYADAVKGRFTISRDNAKNTVYLQMNSLKPEDTAVYYCAKPLYKTWWGYAYDYWGQGTQVTVSS | high polyreactivity
QVQLVESGGGLVQAGGSLRLSCAASGFTFYRYVMGWYRQAPGTERELVAAITGGGRTYYADSVKGRFTISRDNAKNTVYLQMNSLKPEDTAVYYCNKAVPAWGLFDYWGQGTQVTVSS | low polyreactivity
QVQLVESGGGLVQAGGSLRLSCAASGSISSFYAMGWYRQAPGKERELVAGITSGGSTNYADSVKGRFTISRDNAKNTVYLQKNSLKPEDTAVYYCAAVYQGAGTHFDVFVKEFDYWGQGTQVTVSS | low polyreactivity
QVQLVESGGGLVQAGGSLRLSCAASGRTFGPYTMGWYRQAPGKERELVATIRSDNTYYADSVKGRFTISRDNAKNTVYLQMNSLKPEDTAVYYCNAGYYSRYSYPYKYYYWGQGTQVTVSS | high polyreactivity
QVQLVESGGGLVQAGGSLRLTCAASGITFGSYAMGWYRQAPGKERELVAAITWRDGSTYYADSVKGRFTISRDNAKNTVYLQMYSLKPEDTAVYYCAAYLGLRYVGDVSDTWRYDYWGQGTQVTVSS | low polyreactivity
QVQLVESGGGLVQAGGSLRLSCDASGIFVGYTLGWYRQAPRKERELVAAIRWTDGSTYYADSVKGRFTISRDNAKNTVYLQRNSLNPEDTAVYDCGADSNDPARYYYGDEFEDEYWGQGTQVTVSS | low polyreactivity
QVQLVESGGGLVQAGGSLRLSCAASGRTFFGYTMGWYRHAPGKERELVAVISKRGGRTYYADSVKGRFTISRDNAKNTVYLQMNSLKPEDTAVYYCNRVKDSNVSQAMEYWGQGTQVTVSS | high polyreactivity
QVQLVESGGGLVQAGGSLRLSCAASGSIFDVNTMGSYRQAPGKETELGASITSSGSTYYADSVKGRFTISRDNAKNTVYLQMNSLKPEDTAVYYCAATPIGQHFTLDYWGQGTQVTVSS | low polyreactivity
QVQLVESGGGLVQAGGSLRLSCAASGITFSYYAMGWYRQAPGKERELVAAINSSGGSTYYADSVKGRFTISRDNAKNTVYLQMNSLKPEDTAVYYCNADYGYHNHLFWGYYGWSSDHWGQGTQVTVSS | low polyreactivity
QVQLVESGGGLVQAGGSLRLSCAASGITFRSYDMGWYRQAPGTERELVAAISSTGRTYYADSVKGRFTISRDNAKNTVYLQMNSLKPEDTAVYYCARARSHYAYYWWNAGTGLDYWGQGTQVTVSS | high polyreactivity
QVQIVESGGGLVQAGGSLRLTCAASGSTFYDYAMGWYRQAPGKERDLVAAITSADSTNYADSVKGRFTISRDNAKNTVYLQMNSLKPEDTAVYYCGQGTQVTVSS | low polyreactivity
QVQLVESGGGLVQAGGSLRLSCAASGFTFRSYAMGWYRQAPGKEREFVAAINGRSGSTYADSVKGRFTISRDNAKNTVYLQMTSLKPEDTAVYYCAARVRRGSTQAQYYYWGQGTQVTVSS | high polyreactivity
QVQLVETGGRLVQAGGSLRLSCAASGITLPKYAMGWYRPAPGKERELVAAISRSSGRTYYADSVKGRFTISRDNAKNTVYLQMNSLKPEDTAVYYCAASHGGYITRYNYWGQGTQVTVSS | high polyreactivity
QVQLVESGGGLVQAGGSLRLSCAASGFTFGRYAMGWYRQAPGKERELVAAITRGSGGSYYADSVKGRFTISRDIAKNTVYLQMNSLKPDDTAVYYCATGSRSRGALRYAHFDYWGQGTQVTVSS | high polyreactivity
QVQLVESGGGFVQAGGSLRLSCAASGRIFHHNAMGGYRQAPGKVRELDATITKSGGSTYADSVKGRFTISRANAKNTVYLQMNSRKPEETAVYSCAATSVGAYGVRKYWYDYWAQGTQVTVSS | low polyreactivity
QVQLVESGAGIVQAGGSLRLSCAASGLTFKVYAMGWYRQAPGKERELVAAISWSGGSTYYADSVKGRFTISRDNAKNTGYLQRNSLKPEDTAVYYCAVEPSYYVVFFQYDYWGQGTQVTVSS | low polyreactivity
QVQLVESGGGLVQAGGSLRLSCAASGFIFRAYAMGWYRQAPGKERELVAAITKRSGTTYYADSVKGRFTISRDNAKNTVYLQMHSLKPEDTAVYYCAARYYRDYRWYTYAYDYWGQGTQVTVSS | high polyreactivity
QVQLVESGGGLVQAGGSLRLSCAASGRIFNLYAMGWYRQAPGKERELVAAISWRGGSTYYADSVKGRFTISRDNAKNTVYLQMNSLKPEDTAVYYCAATFFTYVYRYYYWGQGTQVTVSS | high polyreactivity
QVQLVESGGGLVQAGGSLRLSCAASGSIFYNNAMGWYRQAPGKERELVATIRRSGGSTYYADSVKGRFTISRDNAKNTVYLQMNSLKPEDTAVYYCAADYTPDLLSKVDYWGQGTQVTVSS | low polyreactivity

Source: the nanobody polyreactivity screen of Harvey et al. (2022)
